Assay results: the supplement of paper PMC10567573

B1: TLE6 (parent)
chain: FWHDTLTEQLWRIFAGVHDEKAKP
B2: TRIM15 (parent)
chain: QSSGKILLCPLCQEEEQAETPMAP
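Further: lentivirally expressed fusions sorted by FACS into six bins by GFP to DsRed ratio, PSI derived from sequencing read proportions per bin multiplied by bin number.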

Variants of: B1
Test: protein stability index of a GFP-peptide fusion (GPS, HEK-293T) (PSI 1-6); higher = more stable
Conditions: c terminus: a fixed tail appended
With E8Y the protein stability index was 2.53. For E8R, the protein stability index was 1.85. In the case of E8F, the protein stability index is reported as 2.17. Work on T5H yielded a protein stability index of 2.23. In the case of T5G, the protein stability index is reported as 1.46. With T5C the protein stability index was 1.34. For T5A, the protein stability index was 1.25. With V17G the protein stability index was 2.26. With V17K the protein stability index was 1.79. Variant V17T has a protein stability index of 1.33. For H3N, the protein stability index was 2.7. H3Q showed a protein stability index of 1.69. H3D showed a protein stability index of 2.16. With H3P the protein stability index was 2.41. Variant D4H has a protein stability index of 1.8. In the case of D4P, the protein stability index is reported as 2.31. Work on D4N yielded a protein stability index of 1.71. Q9C showed a protein stability index of 3.67. With Q9N the protein stability index was 2.45. D19C gave a protein stability index of 2.06. Work on A15V yielded a protein stability index of 2.82. In the case of A15Y, the protein stability index is reported as 1.62. A15M gave a protein stability index of 1.39. In the case of K21G, the protein stability index is reported as 2.06. In the case of K21P, the protein stability index is reported as 1.47. K21N gave a protein stability index of 2.2. K21A showed a protein stability index of 1.69. K21V gave a protein stability index of 3.44. Work on T7D yielded a protein stability index of 2.01. Variant G16N has a protein stability index of 2.07. For I13K, the protein stability index was 2.53. With I13L the protein stability index was 1.69. I13A showed a protein stability index of 2.02. Variant F1K has a protein stability index of 2.44. For F1Q, the protein stability index was 2.54. In the case of R12P, the protein stability index is reported as 2.43. With R12A the protein stability index was 1.91. E20R showed a protein stability index of 1.24. With E20A the protein stability index was 2.37. With L6Y the protein stability index was 1.11. In the case of L6Q, the protein stability index is reported as 2.31. Work on A22Y yielded a protein stability index of 1.37. A22W gave a protein stability index of 1.38. A22P gave a protein stability index of 2.11. A22S gave a protein stability index of 2.06. In the case of H18C, the protein stability index is reported as 2.24. With H18A the protein stability index was 2.38. With L10R the protein stability index was 1.6. Work on L10E yielded a protein stability index of 2.41. In the case of L10G, the protein stability index is reported as 2.24. K23P showed a protein stability index of 1.78. K23R gave a protein stability index of 1.52. For W2A, the protein stability index was 2. W2K gave a protein stability index of 2.11. Variant W2G has a protein stability index of 1.69. In the case of W2I, the protein stability index is reported as 2.26. W2T gave a protein stability index of 2.35. Work on W11M yielded a protein stability index of 1.76. Work on W11A yielded a protein stability index of 2.37.

Variants of: B2
Test: as above
Conditions: c terminus: a fixed tail appended
In the case of T20Y, the protein stability index is reported as 2.89. Work on T20K yielded a protein stability index of 4. With T20D the protein stability index was 3.66. For T20C, the protein stability index was 3.54. For T20P, the protein stability index was 3.16. In the case of P24H, the protein stability index is reported as 3.88. For P24G, the protein stability index was 3.81. Work on P24S yielded a protein stability index of 3.53. Work on P24D yielded a protein stability index of 3.79. Work on E19M yielded a protein stability index of 2.19. Work on E19A yielded a protein stability index of 3.12. In the case of A23Q, the protein stability index is reported as 3.21. With A23F the protein stability index was 3.25. In the case of A23K, the protein stability index is reported as 3.63. A23D gave a protein stability index of 3.96. With A23Y the protein stability index was 2.94. In the case of A23W, the protein stability index is reported as 2.91. For Q13H, the protein stability index was 2.95. In the case of Q13F, the protein stability index is reported as 2.61. Q13E gave a protein stability index of 4.64. With Q13L the protein stability index was 3.12. Work on Q13G yielded a protein stability index of 3.46. Q13T showed a protein stability index of 2.69. With Q13N the protein stability index was 3.65. Work on Q13C yielded a protein stability index of 2.79. With P10C the protein stability index was 3.77. Work on Q17F yielded a protein stability index of 2.55. With Q17P the protein stability index was 4.21. With Q17C the protein stability index was 2.23. In the case of Q17I, the protein stability index is reported as 2.88. Work on G4D yielded a protein stability index of 4.24. G4K showed a protein stability index of 4.13. Work on G4V yielded a protein stability index of 2.94. G4F showed a protein stability index of 2.49. Variant E14T has a protein stability index of 2.46. In the case of E14G, the protein stability index is reported as 3.64. With I6K the protein stability index was 4.23. For I6L, the protein stability index was 3.79. With I6P the protein stability index was 4.11. With I6Q the protein stability index was 3.37. I6Y gave a protein stability index of 4.04. For I6N, the protein stability index was 4.13. E15H gave a protein stability index of 2.98. Work on E15A yielded a protein stability index of 3.17. For E15M, the protein stability index was 2.25. Variant E15C has a protein stability index of 2.49. For K5C, the protein stability index was 3.54. K5V showed a protein stability index of 2.85. K5H gave a protein stability index of 3.17. With K5W the protein stability index was 2.45. Work on K5E yielded a protein stability index of 4.56. S2C gave a protein stability index of 2.88. Work on C9N yielded a protein stability index of 5.59. With C9I the protein stability index was 3.84. For C9Q, the protein stability index was 3.61. C9K showed a protein stability index of 5.6. For C9S, the protein stability index was 5.41. A18M gave a protein stability index of 3.1. A18E gave a protein stability index of 3.34. In the case of A18N, the protein stability index is reported as 3.44. Work on A18L yielded a protein stability index of 3.25. M22A showed a protein stability index of 3.99. Variant M22V has a protein stability index of 2.28. M22Y showed a protein stability index of 3.08. M22N gave a protein stability index of 3.52. With S3D the protein stability index was 3.07. In the case of S3E, the protein stability index is reported as 3.79. With S3H the protein stability index was 2.99. In the case of S3L, the protein stability index is reported as 3.3. Variant S3W has a protein stability index of 2.16. L11D gave a protein stability index of 4.98. L11M showed a protein stability index of 3.78. With L11G the protein stability index was 4.63. Work on L11I yielded a protein stability index of 3.94. For L11P, the protein stability index was 5.27. For L11Q, the protein stability index was 4.24. With P21A the protein stability index was 3. P21S gave a protein stability index of 3.76. Work on P21T yielded a protein stability index of 3.16. For P21F, the protein stability index was 3.13. P21L showed a protein stability index of 2.86. Work on P21E yielded a protein stability index of 3.18. Work on L8E yielded a protein stability index of 5.11. For L8D, the protein stability index was 4.91. L8R gave a protein stability index of 3.34. Variant L8P has a protein stability index of 4.34. Work on L8S yielded a protein stability index of 3.99. In the case of L8K, the protein stability index is reported as 3.83. L8N gave a protein stability index of 4.45. Variant L8T has a protein stability index of 3.48. For C12S, the protein stability index was 5.23. For C12N, the protein stability index was 4.99. For C12Q, the protein stability index was 5.09. In the case of E16I, the protein stability index is reported as 2.69. For E16C, the protein stability index was 2.55. Variant E16P has a protein stability index of 3.28. Work on E16T yielded a protein stability index of 2.61. Variant E16L has a protein stability index of 2.06. Variant E16F has a protein stability index of 2.23. With Q1A the protein stability index was 3.2. Work on Q1V yielded a protein stability index of 2.87. Variant Q1D has a protein stability index of 3.99. For Q1G, the protein stability index was 3.8. With Q1C the protein stability index was 2.72. For Q1F, the protein stability index was 1.4. In the case of L7S, the protein stability index is reported as 3.39. For L7V, the protein stability index was 3.48. In the case of L7I, the protein stability index is reported as 3.4.
